{
  "source": "paper PMC3988887",
  "target": "MBP-Cnn fusion containing the WT PReM domain (MBP-Cnn-WT) (Drosophila melanogaster)",
  "assay": "SEC-MALS; purified MBP-Cnn fusions; equal volume of protein at 15, 75 or 300 uM loaded onto the column; expected monomer mass 67.4 kDa (by MS)",
  "data": [
    {"substance": "MBP-Cnn fusion containing the WT PReM domain (MBP-Cnn-WT) (domain or fragment)", "values": [
      {"measurement": "stoichiometry N", "value": 2}
    ]}
  ]
}
